Data on one substance can be found in US20060286112A1.

The experiment concerns the target human VLA-1 (alpha 1/beta 1, CD49a/CD29) on IL-2 stimulated human PBMC / T cells (human) (UniProt P56199). Description: cell-based or functional assay.

Hu IgG4 (antibody) returned a % adhesion of IL-2 activated T cells to collagen IV vs no antibody, 10 µg/ml, +PMA of 109%; a % adhesion of IL-2 activated T cells to collagen IV vs no antibody, 10 µg/ml, -PMA of 106%; a % adhesion of T cells to collagen IV vs no antibody, 5 nM mAb, 10 ng/ml PMA of 95.6%; a % adhesion of T cells to collagen IV vs no antibody, 5 nM mAb, no PMA of 9.5%.
